Experimental data: publication PMC2605707

Target: RDE-4 variant R2C (dsRBM2 and C-terminus) (C. elegans)
Assay: SEC

Substance: RDE-4 variant R2C (dsRBM2 and C-terminus) (domain or fragment)
- stoichiometry N: 2
